First the molecules themselves.
B1: 320-320 (antibody, human IgG1, name in Kabat numbering, V domains shown)
VH: QVQLVQSGAEVKKPGASVKVSCKASGYTFTSYDINWVRQAPGQGLEWMGWLNPNSGNTGYAQKFQGRVTMTADRSTSTAYMELSSLRSEDTAVYYCAREVPETAAFEYWGQGTLVTVSS
VL: QSVLTQPPSVSGAPGQRVTISCTSSSSDIGAGLGVHWYQQLPGTAPKLLIEGYYNRPSGVPDRFSGSKSGTSASLTITGLLPEDEGDYYCQDYDGTLSALFGGGTKLTVLG
notes: human IgG1, lambda
B2: 320-359 (antibody, human IgG1, name in Kabat numbering, V domains shown)
VH: B1 VH
VL: B1 VL with D92S, L97S
notes: human IgG1, lambda
B3: 320-356 (antibody, human IgG1, name in Kabat numbering, V domains shown)
VH: B1 VH
VL: B1 VL with D92S, T96W
notes: human IgG1, lambda
B4: 320-325 (antibody, human IgG1, name in Kabat numbering, V domains shown)
VH: B1 VH
VL: B1 VL with D92S, Y93A
notes: human IgG1, lambda
B5: 320-337 (antibody, human IgG1, name in Kabat numbering, V domains shown)
VH: B1 VH
VL: B1 VL with D92S, D94L
notes: human IgG1, lambda
B6: 320-350 (antibody, human IgG1, name in Kabat numbering, V domains shown)
VH: B1 VH
VL: B1 VL with D92S, T96S
notes: human IgG1, lambda
B7: 320-327 (antibody, human IgG1, name in Kabat numbering, V domains shown)
VH: B1 VH
VL: B1 VL with D92S, Y93Q
notes: human IgG1, lambda
B8: 320-355 (antibody, human IgG1, name in Kabat numbering, V domains shown)
VH: B1 VH
VL: B1 VL with D92S, T96L
notes: human IgG1, lambda
B9: 320-340 (antibody, human IgG1, name in Kabat numbering, V domains shown)
VH: B1 VH
VL: B1 VL with D92S, G95A
notes: human IgG1, lambda
B10: 320-333 (antibody, human IgG1, name in Kabat numbering, V domains shown)
VH: B1 VH
VL: B1 VL with D92S, D94S
notes: human IgG1, lambda
B11: 320-358 (antibody, human IgG1, name in Kabat numbering, V domains shown)
VH: B1 VH
VL: B1 VL with D92S, L97A
notes: human IgG1, lambda
B12: 320-353 (antibody, human IgG1, name in Kabat numbering, V domains shown)
VH: B1 VH
VL: B1 VL with D92S, T96H
notes: human IgG1, lambda
B13: 320-367 (antibody, human IgG1, name in Kabat numbering, V domains shown)
VH: B1 VH
VL: B1 VL with D92S, S98H
notes: human IgG1, lambda
B14: 320-331 (antibody, human IgG1, name in Kabat numbering, V domains shown)
VH: B1 VH
VL: B1 VL with D92S, Y93W
notes: human IgG1, lambda
B15: 320-332 (antibody, human IgG1, name in Kabat numbering, V domains shown)
VH: B1 VH
VL: B1 VL with D92S, D94A
notes: human IgG1, lambda
B16: 320-357 (antibody, human IgG1, name in Kabat numbering, V domains shown)
VH: B1 VH
VL: B1 VL with D92S, T96Y
notes: human IgG1, lambda
B17: 320-351 (antibody, human IgG1, name in Kabat numbering, V domains shown)
VH: B1 VH
VL: B1 VL with D92S, T96Q
notes: human IgG1, lambda
B18: 320-348 (antibody, human IgG1, name in Kabat numbering, V domains shown)
VH: B1 VH
VL: B1 VL with D92S, G95Y
notes: human IgG1, lambda
B19: 320-347 (antibody, human IgG1, name in Kabat numbering, V domains shown)
VH: B1 VH
VL: B1 VL with D92S, G95W
notes: human IgG1, lambda
B20: 320-342 (antibody, human IgG1, name in Kabat numbering, V domains shown)
VH: B1 VH
VL: B1 VL with D92S, G95Q
notes: human IgG1, lambda
B21: 320-366 (antibody, human IgG1, name in Kabat numbering, V domains shown)
VH: B1 VH
VL: B1 VL with D92S, S98D
notes: human IgG1, lambda
B22: 320-364 (antibody, human IgG1, name in Kabat numbering, V domains shown)
VH: B1 VH
VL: B1 VL with D92S, S98A
notes: human IgG1, lambda
B23: 320-344 (antibody, human IgG1, name in Kabat numbering, V domains shown)
VH: B1 VH
VL: B1 VL with D92S, G95H
notes: human IgG1, lambda
B24: 320-354 (antibody, human IgG1, name in Kabat numbering, V domains shown)
VH: B1 VH
VL: B1 VL with D92S, T96K
notes: human IgG1, lambda
B25: 320-349 (antibody, human IgG1, name in Kabat numbering, V domains shown)
VH: B1 VH
VL: B1 VL with D92S, T96A
notes: human IgG1, lambda
B26: 320-341 (antibody, human IgG1, name in Kabat numbering, V domains shown)
VH: B1 VH
VL: B1 VL with D92S, G95S
notes: human IgG1, lambda
B27: 320-360 (antibody, human IgG1, name in Kabat numbering, V domains shown)
VH: B1 VH
VL: B1 VL with D92S, L97Q
notes: human IgG1, lambda
B28: 320-330 (antibody, human IgG1, name in Kabat numbering, V domains shown)
VH: B1 VH
VL: B1 VL with D92S, Y93L
notes: human IgG1, lambda
B29: 320-346 (antibody, human IgG1, name in Kabat numbering, V domains shown)
VH: B1 VH
VL: B1 VL with D92S, G95L
notes: human IgG1, lambda
B30: 320-352 (antibody, human IgG1, name in Kabat numbering, V domains shown)
VH: B1 VH
VL: B1 VL with D92S, T96D
notes: human IgG1, lambda
B31: 320-365 (antibody, human IgG1, name in Kabat numbering, V domains shown)
VH: B1 VH
VL: B1 VL with D92S, S98Q
notes: human IgG1, lambda
B32: 320-343 (antibody, human IgG1, name in Kabat numbering, V domains shown)
VH: B1 VH
VL: B1 VL with D92S, G95D
notes: human IgG1, lambda

Residue numbers refer to the chain shown, from its start.

The first assay concerns the target T1, human TL1A extracellular domain with N-terminal HIS and FLAG tag (human, UniProt O95150 72-251).
T1 construct: the whole entry is named
T1 sequence: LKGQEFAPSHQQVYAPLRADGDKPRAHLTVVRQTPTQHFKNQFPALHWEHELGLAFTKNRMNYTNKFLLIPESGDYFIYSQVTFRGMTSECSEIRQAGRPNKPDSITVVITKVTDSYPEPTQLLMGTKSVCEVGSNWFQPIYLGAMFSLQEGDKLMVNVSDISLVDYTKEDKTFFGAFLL
Briefly: SPR Run 4, purified Ab captured on Protein A, TL1A 5 ug/mL, timepoint 44. The text has this: (§1) 1.5. Antibody expression and antigen binding as determined by SPR. Using a CM5 sensor chip (GE Healthcare) Protein A (Pierce) was coupled to the chip surface using an amine coupling kit (GE Healthcare). Protein A was coupled on flow cell 1 and 2 (or alternatively 3 and 4) using a BIACORE® T200. […] The amount of supernatant or purified protein (as well as the concentration) injected during the capture stage varied between runs and is specified in the header of the Tables 3-11. At the end of injection of the supernatant or purified antibody the change in response units was measured. This value was reported as Capture Level in Tables 3-11. […] The response units were measured prior to the end of the dissociation phase. […] The sensorgrams were double referenced (flow cell 2 is subtracted from flow cell 1 and a buffer blank). As there were a large number of antibody variants to screen, these were screened across different runs (Tables 3-11). […] A summary of the conditions used in each run is below:
(§2) 2.1. […] In some experiment the antibodies were purified using Protein A chromatography (See 1.4) and purified antibodies were used in BIACORE® (GE Healthcare) experiments.
As for B1, the “TL1A Binding Level (Early)” value amounted to 31 RU.

On to B2, for which the “TL1A Binding Level (Early)” value was 57 RU.

B3: the “TL1A Binding Level (Early)” value amounted to 109 RU.

Consider B4, for which the “TL1A Binding Level (Early)” value came to 95 RU.

Take B5: the “TL1A Binding Level (Early)” value worked out at 21 RU.

Take B6: the “TL1A Binding Level (Early)” value was 130 RU.

For B7, the “TL1A Binding Level (Early)” value was found to be 130 RU.

On to B8, for which the “TL1A Binding Level (Early)” value is 102 RU.

B9: the “TL1A Binding Level (Early)” value came out at 145 RU.

On to B10, for which the “TL1A Binding Level (Early)” value came to 95 RU.

Regarding B11, the “TL1A Binding Level (Early)” value is 82 RU.

Take B12: the “TL1A Binding Level (Early)” value worked out at 97 RU.

Take B13: the “TL1A Binding Level (Early)” value worked out at 119 RU.

For B14, the “TL1A Binding Level (Early)” value worked out at 173 RU.

For B15, the “TL1A Binding Level (Early)” value came to 66 RU.

For the molecule B16, the “TL1A Binding Level (Early)” value turned out to be 119 RU.

With B17, the “TL1A Binding Level (Early)” value was determined as 112 RU.

Take B18: the “TL1A Binding Level (Early)” value was 144 RU.

With B19, the “TL1A Binding Level (Early)” value came to 149 RU.

With B20, the “TL1A Binding Level (Early)” value was found to be 152 RU.

On to B21, for which the “TL1A Binding Level (Early)” value came out at 62 RU.

For the molecule B22, the “TL1A Binding Level (Early)” value amounted to 124 RU.

In the case of B23, the “TL1A Binding Level (Early)” value worked out at 117 RU.

With B24, the “TL1A Binding Level (Early)” value is 53 RU.

As to B25, the “TL1A Binding Level (Early)” value turned out to be 112 RU.

In the case of B26, the “TL1A Binding Level (Early)” value came to 149 RU.

Take B27: the “TL1A Binding Level (Early)” value is 86 RU.

For the molecule B28, the “TL1A Binding Level (Early)” value amounted to 139 RU.

As for B29, the “TL1A Binding Level (Early)” value is 126 RU.

For B30, the “TL1A Binding Level (Early)” value stood at 101 RU.

On to B31, for which the “TL1A Binding Level (Early)” value was found to be 141 RU.

On to B32, for which the “TL1A Binding Level (Early)” value came out at 121 RU.

The target in the next assay is T1, human TL1A extracellular domain with …. Kind of assay: SPR Run 4, purified Ab captured on Protein A, TL1A 5 ug/mL, timepoint 220.
Excerpt: as §1, §2
Regarding B1, the “TL1A Binding Level (Late)” value came to 17 RU.

Take B2: the “TL1A Binding Level (Late)” value was found to be 27 RU.

As for B3, the “TL1A Binding Level (Late)” value was found to be 86 RU.

Consider B4, for which the “TL1A Binding Level (Late)” value was 83 RU.

In the case of B5, the “TL1A Binding Level (Late)” value is 15 RU.

For the molecule B6, the “TL1A Binding Level (Late)” value was 118 RU.

In the case of B7, the “TL1A Binding Level (Late)” value was 119 RU.

In the case of B8, the “TL1A Binding Level (Late)” value was 76 RU.

Regarding B9, the “TL1A Binding Level (Late)” value stood at 132 RU.

Consider B10, for which the “TL1A Binding Level (Late)” value stood at 67 RU.

For B11, the “TL1A Binding Level (Late)” value stood at 50 RU.

Take B12: the “TL1A Binding Level (Late)” value stood at 73 RU.

B13: the “TL1A Binding Level (Late)” value amounted to 116 RU.

As for B14, the “TL1A Binding Level (Late)” value was determined as 176 RU.

On to B15, for which the “TL1A Binding Level (Late)” value worked out at 44 RU.

Take B16: the “TL1A Binding Level (Late)” value came to 91 RU.

On to B17, for which the “TL1A Binding Level (Late)” value was determined as 83 RU.

Consider B18, for which the “TL1A Binding Level (Late)” value is 127 RU.

B19: the “TL1A Binding Level (Late)” value worked out at 130 RU.

As for B20, the “TL1A Binding Level (Late)” value was 139 RU.

Regarding B21, the “TL1A Binding Level (Late)” value is 31 RU.

Regarding B22, the “TL1A Binding Level (Late)” value was 109 RU.

As to B23, the “TL1A Binding Level (Late)” value was 87 RU.

Regarding B24, the “TL1A Binding Level (Late)” value amounted to 30 RU.

For B25, the “TL1A Binding Level (Late)” value came out at 88 RU.

As for B26, the “TL1A Binding Level (Late)” value was 135 RU.

B27: the “TL1A Binding Level (Late)” value was 53 RU.

Regarding B28, the “TL1A Binding Level (Late)” value was determined as 119 RU.

Take B29: the “TL1A Binding Level (Late)” value was found to be 107 RU.

Turning to B30, the “TL1A Binding Level (Late)” value turned out to be 63 RU.

Take B31: the “TL1A Binding Level (Late)” value amounted to 128 RU.

With B32, the “TL1A Binding Level (Late)” value amounted to 90 RU.
